The results in this text go back to US12044680.

Values joined by “and” are separate entries in the source; they are usually repeats but may differ in a detail not shown here. Equal entries are not always repeated. Where two headings read alike, the source gives them in different places.

Experiment [1] addresses T1, H-2 Kb tetramer (murine), P01901.
T1 chain: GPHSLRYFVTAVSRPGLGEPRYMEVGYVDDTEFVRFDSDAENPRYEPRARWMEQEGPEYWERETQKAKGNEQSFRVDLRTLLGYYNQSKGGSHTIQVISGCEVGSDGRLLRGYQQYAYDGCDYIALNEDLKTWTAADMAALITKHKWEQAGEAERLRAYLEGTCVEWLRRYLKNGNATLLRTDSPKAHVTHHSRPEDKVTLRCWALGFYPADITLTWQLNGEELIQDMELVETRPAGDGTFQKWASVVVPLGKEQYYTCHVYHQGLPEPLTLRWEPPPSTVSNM
Nature of the experiment: peptide exchange on H-2 Kb PE tetramer, reference peptide 20 µM, glycyl-methionine, 4 h; bead sandwich immunoassay, flow cytometry. (Flow cytometry measures light scatter and fluorescence of single cells or particles in a stream.)

Experiment [2] has the same target. The experiment can be described thus: peptide exchange on H-2 Kb PE tetramer, reference peptide 2 µM, glycyl-methionine, 4 h; competitor: exiting peptide TFQRK(DNP)PAAF; bead sandwich immunoassay, flow cytometry.
Experiment [3] has the same target. The experiment can be described thus: peptide exchange on H-2 Kb APC tetramer, reference peptide 2 µM, glycyl-methionine, 4 h; competitor: exiting peptide TFQRK(DNP)PAAF; bead sandwich immunoassay, flow cytometry.
Experiment [4] shares this target. Nature of the experiment: peptide exchange on H-2 Kb APC tetramer, reference peptide 20 µM, glycyl-methionine, 4 h; competitor: exiting peptide TFQRK(DNP)PAAF; bead sandwich immunoassay, flow cytometry.
Experiment [5] shares this target. Nature of the experiment: peptide exchange on H-2 Kb BV421 tetramer, reference peptide 2 µM, glycyl-methionine, 4 h; competitor: exiting peptide TFQRK(DNP)PAAF; bead sandwich immunoassay, flow cytometry.
Experiment [6] shares this target. Nature of the experiment: peptide exchange on H-2 Kb BV421 tetramer, reference peptide 20 µM, glycyl-methionine, 4 h; competitor: exiting peptide TFQRK(DNP)PAAF; bead sandwich immunoassay, flow cytometry.
Experiment [7] concerns the target HLA-A*02:01 tetramer (human). Nature of the experiment: peptide exchange on HLA-A*02:01 tetramer, entering peptide 20 µM, 4 h; competitor: exiting peptide ILKEKK(DNP)VHGV; capture on anti HLA-ABC beads, anti-DNP FITC, flow cytometry.
Experiment [8] deals with HLA-A*24:02 tetramer (human). The experiment can be described thus: peptide exchange on HLA-A*24:02 tetramer, competing peptide 20 µM, 4 h; competitor: exiting peptide TFQRK(DNP)PAAF; capture on anti HLA-ABC beads, anti-DNP FITC, flow cytometry.
Experiment [9] concerns the target T1, H-2 Kb tetramer (murine), P01901.
The target in experiment [10] is HLA-A*02:01 tetramer (human).
In experiment [11] the target is HLA-A*24:02 tetramer (human).
The mark [12] stands for this setting: remark: other sources report otherwise.

B1: reference entering peptide (SIYRYYGL (SEQ ID NO: 59)) (peptide)
peptide: SIYRYYGL
modifications: not checked
With B1, the % peptide exchange came to 100% in experiment [1]; 92.7% in experiment [2]; 97.1% in experiment [3]; 99.1% in [4]; 90.6% in experiment [5]; 97.3% in [6].

B2: HLA-A*02:01 Reference peptide, … (SEQ ID NO: 5) (peptide)
peptide: YLLEFTPPV
modifications: not checked
For the molecule B2, the % peptide exchange in [7] stood at 91.9%.

B3: … (SEQ ID NO: 18) (peptide)
peptide: AMAPRTLLL
modifications: not checked
Take B3: the % peptide exchange in [8] came out at 81.6%.

B4: TFQRK(DNP)PAAF (SEQ ID NO: 16) (peptide)
peptide: TFQRKPAAF
modifications: not checked
As to B4, in [9], the % peptide exchange (loss of the exiting peptide without entering peptide) is 16% and 13.3% and 30.4%.

B5: … (SEQ ID NO: 23) (peptide)
peptide: GLADQLIHL
modifications: not checked
The molecule B5 yielded a % peptide exchange in experiment [10] of 91.4%.

B6: … (SEQ ID NO: 36) (peptide)
peptide: CINGVCWTV
modifications: not checked
Molecule B6 showed a % peptide exchange in experiment [10] of 85.3%.

B7: … (SEQ ID NO: 44) (peptide)
peptide: CSLWNGPHL
modifications: not checked
As for B7, the % peptide exchange in experiment [7] is 55.2%.

B8: … (SEQ ID NO: 30) (peptide)
peptide: RVRAYTYSK
modifications: not checked
As for B8, the % peptide exchange in [11] was 10.3%.

B9: … (SEQ ID NO: 38) (peptide)
peptide: SLPPPGTRV
modifications: not checked
The molecule B9 had a % peptide exchange in experiment [7] (setting [12]) of 86.6%.

B10: … (SEQ ID NO: 42) (peptide)
peptide: RIKDFLRNL
modifications: not checked
Regarding B10, the % peptide exchange in experiment [7] was found to be 34%.

B11: … (SEQ ID NO: 31) (peptide)
peptide: RYMRWTYRF
modifications: not checked
In experiment [11], B11 gave a % peptide exchange of 101%.

B12: … (SEQ ID NO: 39) (peptide)
peptide: LTLGEFLKL
modifications: not checked
Turning to B12, the % peptide exchange in experiment [7] was 43.6%.

B13: … (SEQ ID NO: 35) (peptide)
peptide: WMHKVPASL
modifications: not checked
Regarding B13, the % peptide exchange in [7] worked out at 87.9%.

B14: … (SEQ ID NO: 28) (peptide)
peptide: LNMADKKET
modifications: not checked
B14: the % peptide exchange in experiment [11] came to 10.3%.

B15: … (SEQ ID NO: 43) (peptide)
peptide: ALLAVGATK
modifications: not checked
In [7], B15 yielded a % peptide exchange of 25.7%.

B16: … (SEQ ID NO: 24) (peptide)
peptide: GLAVVTHGL
modifications: not checked
For the molecule B16, the % peptide exchange in experiment [7] turned out to be 91%.

B17: … (SEQ ID NO: 34) (peptide)
peptide: AVLDGLLSL
modifications: not checked
As for B17, in experiment [7], the % peptide exchange was 90.7%.

B18: … (SEQ ID NO: 48) (peptide)
peptide: ATVQGQNLK
modifications: not checked
Take B18: in experiment [7], the % peptide exchange turned out to be 27.9%.

B19: … (SEQ ID NO: 27) (peptide)
peptide: IYSTVASSL
modifications: not checked
In experiment [11], B19 registered a % peptide exchange of 101%.

B20: … (SEQ ID NO: 47) (peptide)
peptide: SYVPSAEQI
modifications: not checked
For the molecule B20, the % peptide exchange in experiment [7] came out at 25%.

B21: … (SEQ ID NO: 41) (peptide)
peptide: IMQIMPYGC
modifications: not checked
As to B21, in experiment [7], the % peptide exchange was 59.9%.

B22: … (SEQ ID NO: 21) (peptide)
peptide: FLSELTQQL
modifications: not checked
Molecule B22 came in with a % peptide exchange in [8] of 23.6%.

B23: … (SEQ ID NO: 40) (peptide)
peptide: IMQLMPFGC
modifications: not checked
For the molecule B23, the % peptide exchange in experiment [7] (setting [12]) was found to be 40.9%.

B24: … (SEQ ID NO: 33) (peptide)
peptide: FLYDDNQRV
modifications: not checked
Turning to B24, the % peptide exchange in experiment [7] worked out at 91.2%.

B25: … (SEQ ID NO: 49) (peptide)
peptide: IRLRPGGKK
modifications: not checked
For the molecule B25, in experiment [10], the % peptide exchange stood at 25%.

B26: … (SEQ ID NO: 45) (peptide)
peptide: EYILSLEEL
modifications: not checked
For the molecule B26, the % peptide exchange in experiment [7] came to 24.2%.

B27: … (SEQ ID NO: 25) (peptide)
peptide: GYSLKLSKL
modifications: not checked
On to B27, for which the % peptide exchange in experiment [11] is 37.9%.

B28: … (SEQ ID NO: 46) (peptide)
peptide: ALALEVGEL
modifications: not checked
With B28, in experiment [7], the % peptide exchange was found to be 85.1%.

B29: … (SEQ ID NO: 37) (peptide)
peptide: WMHHNMDLI
modifications: not checked
Turning to B29, in [7], the % peptide exchange worked out at 89.2%.
